Measurements taken from patent US20140363434A1 (COMPLIX, published 2014).

How the values were obtained:
[1] = biological target: T1, GST-tagged recombinant human MCL-1 (residues 172 to 327) (human, UniProt Q07820 172-327); test: ELISA: Alphabody (500 nM) captured by anti-V5 antibody, five-fold dilutions of GST-MCL-1, anti-GST-HRP detection; printed as 'binding affinity'
T1 construct: Produced in E. coli and purified by the GST tag; also called recombinant MCL-1
Experimental: (§1) Alphabody (500 nM) was captured by immobilized anti-V5 antibody (5 microg/ml) to a microtiterplate. Binding of five-fold dilutions of Glutathione S transferase (GST)-tagged recombinant BCL-2 family proteins MCL-1 (FIG. 26A), BCL-XL (FIG. 26B) and BCL-2a (FIG. 26C) was detected using a anti-GST antibody conjugated to Horse Radish Peroxidase. Plates were read at 492 nm and 630 nm.
(§2) Maxisorp Nunc plates were coated with 100 microl anti-V5 antibody (5 microg/ml) in carbonate buffer pH 9.6 overnight at 4° C. The next day, the plates were washed 3 times with Tris Buffered Saline containing 0.05% Tween 20 (TBST) and blocked with TBS containing 0.1% BSA and 0.5% gelatin for 2 h at 37° C. […] Plates were washed 10 times with TBST and five-fold dilutions of Glutathione S transferase (GST) tagged recombinant BCL-2 family proteins (MCL-1, BCL-XL and BCL-2a) were added and further incubated for 2 h at RT while shaking. Binding of GST-tagged recombinant BCL-2 family proteins was detected using an anti-GST antibody conjugated to Horse Radish Peroxidase. Signals were developed by reacting with ortho-phenylenediamine and the reaction was stopped with 4 M H₂SO₄ when the OD reached a value between 2 and 3.

[2] = biological target: T2, GST-tagged recombinant human BCL-2 isoform alpha (BCL-2a) with a C-terminal deletion of 32 amino acids (human, UniProt P10415 1-207); test: ELISA: Alphabody (500 nM) captured by anti-V5 antibody, five-fold dilutions of GST-BCL-2a, anti-GST-HRP detection; printed as 'binding affinity'
T2 construct: Produced in E. coli and purified by the GST tag; not shown: Glutathione S Transferase (GST) tag at the N-terminus

[3] = biological target: T3, GST-tagged recombinant human BCL-XL with a C-terminal deletion of 24 amino acids (human, UniProt Q07817 1-209); test: ELISA: Alphabody (500 nM) captured by anti-V5 antibody, five-fold dilutions of GST-BCL-XL, anti-GST-HRP detection; printed as 'binding affinity'
T3 construct: Produced in E. coli and purified by the GST tag; not shown: Glutathione S Transferase (GST) tag at the N-terminus

[4] = biological target: T1, GST-tagged recombinant human MCL-1 …; test: ELISA: Alphabody (500 nM) captured by coated anti-V5 antibody; five-fold dilutions of GST-MCL-1 detected with anti-GST antibody-HRP; OD 492/630 nm
Experimental: as §1, §2

[5] = biological target: T3, GST-tagged recombinant human BCL-XL …; test: ELISA: Alphabody (500 nM) captured by coated anti-V5 antibody; five-fold dilutions of GST-BCL-XL detected with anti-GST antibody-HRP; OD 492/630 nm
Experimental: (§3) Alphabody (500 nM) was captured by immobilized anti-V5 antibody (5 microg/ml) to a microtiterplate. Binding of five-fold dilutions of Glutathione S transferase (GST)-tagged recombinant BCL-2 family proteins MCL-1, BCL-XL and BCL-2a was detected using a anti-GST antibody conjugated to Horse Radish Peroxidase. Plates were read at 492 nm and 630 nm.
as §2

[6] = biological target: T1, GST-tagged recombinant human MCL-1 …; test: ELISA: Alphabody (500 nM) captured by coated anti-V5 antibody; five-fold dilutions of GST-tagged protein detected with anti-GST antibody-HRP; OD 492/630 nm
Experimental: as §3, §2

[7] = biological target: T3, GST-tagged recombinant human BCL-XL …; test: as above
Experimental: as §3, §2

[8] = biological target: T4, MCL-1 in MCL-1 transfected HEK cell lysate (Santa Cruz) (UniProt Q07820 1-350, limits assumed); test: dot blot: MCL-1 transfected HEK cell lysate spotted on nitrocellulose, incubated with Alphabody, detected with anti-His antibody-HRP
T4 construct: The target was spotted as a whole cell lysate on nitrocellulose, not as purified protein; also called MCL-1 cell lysate; Mcl-1 cell lysate
T4 sequence (Q07820 whole entry): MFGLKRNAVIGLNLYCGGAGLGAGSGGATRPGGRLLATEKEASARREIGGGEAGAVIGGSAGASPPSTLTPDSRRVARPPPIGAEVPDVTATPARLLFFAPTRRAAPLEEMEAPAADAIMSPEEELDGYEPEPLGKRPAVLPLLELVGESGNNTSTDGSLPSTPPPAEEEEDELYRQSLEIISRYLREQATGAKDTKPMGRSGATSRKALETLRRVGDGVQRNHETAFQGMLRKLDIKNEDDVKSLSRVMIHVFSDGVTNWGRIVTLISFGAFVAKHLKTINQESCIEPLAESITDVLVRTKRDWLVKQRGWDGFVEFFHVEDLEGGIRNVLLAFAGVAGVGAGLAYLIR

T3 sequence (Q07817 1-209, stated change not applied, form in doubt): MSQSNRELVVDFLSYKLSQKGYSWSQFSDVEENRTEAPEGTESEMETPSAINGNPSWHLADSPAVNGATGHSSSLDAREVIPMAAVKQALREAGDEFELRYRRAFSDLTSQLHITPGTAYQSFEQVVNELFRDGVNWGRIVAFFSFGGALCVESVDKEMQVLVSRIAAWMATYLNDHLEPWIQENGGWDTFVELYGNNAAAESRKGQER
T1 sequence (Q07820 172-327 limits assumed): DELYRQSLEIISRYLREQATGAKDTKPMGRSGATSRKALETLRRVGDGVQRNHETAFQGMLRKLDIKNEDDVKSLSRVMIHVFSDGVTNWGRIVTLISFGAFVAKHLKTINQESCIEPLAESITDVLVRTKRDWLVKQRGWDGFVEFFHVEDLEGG
T2 sequence (P10415 1-207, stated change not applied, form in doubt): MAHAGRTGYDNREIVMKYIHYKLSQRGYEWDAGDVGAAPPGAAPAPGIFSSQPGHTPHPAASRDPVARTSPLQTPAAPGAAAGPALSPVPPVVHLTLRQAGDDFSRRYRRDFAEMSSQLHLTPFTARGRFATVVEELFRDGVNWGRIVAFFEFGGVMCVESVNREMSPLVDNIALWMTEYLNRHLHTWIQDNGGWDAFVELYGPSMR

B1: AB1_pan_hiKR3-V5 (designed binder)
chain: MSIEEIQKQFKRIQKQIKRIAKQIKRMTGGSGGSGGMSIEEIAAQIAAIQLRIIGDQFNIYYMTGSGGGGSGGSIEEIKKSIRAIQKEIKKIQKKIKKMTPHHHHHHHHHHGKPIPNPLLGLDST
notes: Cationized Alphabody with C-terminal His-tag and V5 tag
Kd [1]: ~1.9 nM
Kd [2]: ~18.7 nM
Kd [3]: ~4.5 nM
EC50 (read off the curve) [4]: ~2 nM
EC50 (read off the curve) [5]: ~4 nM
EC50 (read off the curve) [6]: ~2 nM
EC50 (read off the curve) [7]: ~4 nM

B2: MB23_hiR-V5 (designed binder)
chain: MSIEQIQKEITTIQEVIAAIQKYIYTMTGGSGGSGGMSIQQIQAAIRRIQRAIRRIQRAIRRMTGSGGGGSGMSIEEIQKQIAAIQEQIVAIYKQIMAMASHHHHHHGKPIPNPLLGLDST
notes: Cationized Alphabody directed against IL-23, used as the negative control; also called control Alphabody MB23_hiR-V5; cationized MB23
binding result [4]: no binding (tested: 200 nM)

B3: tat-013 Alphabody (designed binder)
chain: YGRKKRRQRRRMSIEEIQKQIAAIQKQIAAIQKQIYAMTGGSGGGSGGGSGGGSGMSIEEIQKQIAAIQKQIAAIQKQIYAMTGGSGGGSGGGSGGGSGMSIEEIQKQIAAIQKQIAAIQKQIYAMTP
notes: also called tat-tagged control Alphabody scAB013
binding result [8]: no binding (tested: 10 uM)

B4: AB1_A2aF_hiKR3-V5 (designed binder)
chain: MSIQQIQKQFKRIQKQIKRIEKQIKRMTGGSGGSGGMSIEEITKQIAAIQLRIVGDQVQIYAMTGGSGGGSGGGSGGGSGGSIEEIKKSIRAIQKEIKKIQKKIKKMTPHHHHHHHHHHGKPIPNPLLGLDST
notes: Cationized MCL-1 Alphabody with C-terminal His-tag and V5 tag
Kd [1]: 1 nM
EC50 (read off the curve) [4]: ~1 nM
